Experimental data: PMC1182371, “Zinc-finger domains of the transcriptional repressor KLF15 bind multiple sites in rhodopsin and IRBP promoters including the CRS-1 and G-rich repressor elements”

Biological target: KLF15-ZF-GST (human, UniProt Q9UIH9 294-416)
Assay: competition; 50x, 250x vs bRho29 probe; also hRho29 probe (data not shown); EMSA: 4 mM HEPES, 5 mM EGTA, 100 mM KCl, 0.25 mM ZnCl2, 0.02% NP40, 0.1 M DTT, 4% glycerol, 90-120 min on ice, pH not stated; footprinting: same buffer, DNase I at room temperature 1 min
Settings: protein: recombinant; tags: N-terminal GST; label: unlabeled; GG ends end-filled

Sequence of KLF15-ZF-GST (Q9UIH9 294-416): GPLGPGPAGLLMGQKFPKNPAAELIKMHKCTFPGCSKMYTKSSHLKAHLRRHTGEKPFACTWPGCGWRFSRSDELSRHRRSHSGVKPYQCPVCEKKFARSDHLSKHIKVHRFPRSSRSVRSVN

Binder	binding result
IRBP1 (dsDNA) DNA 1: GGACAGGATTAAAGGCTTACTGGAG DNA 2: CTCCAGTAAGCCTTTAATCCTGTCC	no binding
IRBP2 (dsDNA) DNA 1: GGACTTGTCAGGGCCTTTA DNA 2: TAAAGGCCCTGACAAGTCC	no binding
